Each block holds one binder with its values, some of them ahead of it.
How the values were obtained:
Experiment in all cases: cell-based or functional assay
[1] = molecular target: T1, PCSK9-his (wild-type PCSK9, prepared by Akeso Biopharma) (human, UniProt Q8NBP7 31-692, limits assumed)
[2] = molecular target: T1, PCSK9-his (wild-type PCSK9, prepared by …); remark: listed apart in the source
[3] = molecular target: PCSK9(D374Y)-his (Acrobio, cat. no. PCY-H5225) (UniProt Q8NBP7 31-692)

EC50 of MAB1 for inhibition of LDLR endocytosis by wild-type PCSK9 (BODIPY-LDL uptake, HepG2 cells) [1]: 32.9 µg/mL
EC50 for MAB1 relieving the inhibition of LDL endocytosis in HepG2 cells by PCSK9 [2]: 13 µg/mL
B1: MAB1 (antibody, V domains shown)
VH: EVQLVESGGGLVQPGRSLRLSCAASGFTFSSYSMNWVRQAPGKGLEWVSGISSSSSYISYADSVQGRFTISRDNGKNSLYLQMNSLRAEDTALYFCAREYDFWSAYYDAFDVWGQGTMVTVSS
VL: QSELTQPRSVSGSPGQSVTISCTGTSRNIGGGNDVHWYQQHPGKAPKLLISGVIERSSGVPDRFSGSKSGNTASLTISGLQAEDEADYYCQSFDGSLSGSVFGTGTDVTVL

EC50 for inhibition of LDLR endocytosis by functionally enhanced mutant PCSK9 (PCSK9-D374Y) (BODIPY-LDL uptake, HepG2 cells) [3]: 1.26 µg/mL
EC50 for inhibition of LDLR endocytosis by wild-type PCSK9 (BODIPY-LDL uptake, HepG2 cells) [1]: 30.8 µg/mL
B2: evolocumab (purchased from AMGEN) (antibody, V domains shown)
VH: QVQLVQSGAEVKKPGASVKVSCKASGYTLTSYGISWVRQAPGQGLEWMGWVSFYNGNTNYAQKLQGRGTMTTDPSTSTAYMELRSLRSDDTAVYYCARGYGMDVWGQGTTVTVSS
VL: QSALTQPASVSGSPGQSITISCTGTSSDVGGYNSVSWYQQHPGKAPKLMIYEVSNRPSGVSNRFSGSKSGNTASLTISGLQAEDEADYYCNSYTSTSMVFGGGTKLTVL

Source: patent US20230312750A1 (AD PHARMACEUTICALS, published 2023)
